Measurements as given in patent US12456543B2, “Enzymes” (UNIVERSITY COURT OF THE UNIVERSITY OF ST ANDREWS, priority 2018, dated 2025).

Legend:
[1] = engineered to expand substrate scope; cited from earlier work
[2] = Halogenase activity of Dsg205 and Dsg701 against 600 member compound library, LC-MSMS assay; type: biochemical; details: 600 member compound library
[3] = Halogenation of the initial 300 compound library by purified halogenase, LCMS; type: biochemical; details: out of 300 compounds

Row | Molecule | yields after directed evolution and rational design [1] | members of the library halogenated (substrates accepted) [2] | compounds of the initial 300 compound library halogenated [3]
1 | PrnA: tryptophan 7-halogenase, first step in pyrrolnitrin biosynthesis (protein, UniProt P95480 1-538, looked up) Tryptophan 7-halogenase PrnA: MNKPIKNIVIVGGGTAGWMAASYLVRALQQQANITLIESAAIPRIGVGEATIPSLQKVFFDFLGIPEREWMPQVNGAFKAAIKFVNWRKSPDPSRDDHFYHLFGNVPNCDGVPLTHYWLRKREQGFQQPMEYACYPQPGALDGKLAPCLSDGTRQMSHAWHFDAHLVADFLKRWAVERGVNRVVDEVVDVRLNNRGYISNLLTKEGRTLEADLFIDCSGMRGLLINQALKEPFIDMSDYLLCDSAVASAVPNDDARDGVEPYTSSIAMNSGWTWKIPMLGRFGSGYVFSSHFTSRDQATADFLKLWGLSDNQPLNQIKFRVGRNKRAWVNNCVSIGLSSCFLEPLESTGIYFIYAALYQLVKHFPDTSFDPRLSDAFNAEIVHMFDDCRDFVQAHYFTTSRDDTPFWLANRHDLRLSDAIKEKVQRYKAGLPLTTTSFDDSTYYETFDYEFKNFWLNGNYYCIFAGLGMLPDRSLPLLQHRPESIEKAEAMFASIRREAERLRTSLPTNYDYLRSLRDGDAGLSRGQRGPKLAAQESL | 15-65% | – | –
2 | Dsg205: halogenase from Trichoderma virens Gy29-8 GenBank: EHK23009.1 (protein, left off: small tags and cut ends) MAIPEKCTVLVVGGGPAGSYAAAALAREGIDTVILEADKFPRYHIGESMLASMRHFLRFIDVDSVFDSYGFTKKVGAAFKLNPKKREGYTDFLAAGGPENYAWNVVRSEADQLLFQHAAKSGAKAFDGVQVKSINFIDVPYKGPGQLPHDYPGRPVSATYVQKDDNTPREIKFDYIIDASGRVGILSTKHLKNRKYNQGLKNVATWGYWKGAGAYGKGTPRENSPFFEALQDESGWAWLIPLHNGTASVGIVMNQKMSVERKTQAGSPDSKTFYLDCLKELAPDLTKLMENGELITDIKSAADYSYSASGYAIPYARIAGDAGCFIDPYFSSGVHLAFVGGLSAAATIAAAIRGDCSEEAAADWHSKKIADAYIRFLLVVLSAYRQIRSQEEPVLSDINEDNFDRAFAFFRPVIQGIADVDTKLSQDELRKTLEFCSNAFEPVKPEDRTAMLEKLGKDPATAYQVDLSDQQRTVVDHIRARQMMRTEDTININSFGTDSINGFVPNLKRGELGLVPAKV | – | 33 | 3
